# Values quoted from earlier work, collected in publication PMC2667909.
# Molecular target: Histone H3 peptide (H3K27me3) (Drosophila melanogaster) (UniProt P02299)
substance,measurement,value
Polycomb (Pc) chromodomain (from UniProt P26017),Kd,5 µM
